In general, Kd refers to the free concentration of one partner at which half of the binding sites on the other are occupied at equilibrium, for simple one-to-one binding.

Series [1] concerns the target T1, NEIL2 (rNEIL2) (UniProt Q969S2 1-332).
T1 sequence: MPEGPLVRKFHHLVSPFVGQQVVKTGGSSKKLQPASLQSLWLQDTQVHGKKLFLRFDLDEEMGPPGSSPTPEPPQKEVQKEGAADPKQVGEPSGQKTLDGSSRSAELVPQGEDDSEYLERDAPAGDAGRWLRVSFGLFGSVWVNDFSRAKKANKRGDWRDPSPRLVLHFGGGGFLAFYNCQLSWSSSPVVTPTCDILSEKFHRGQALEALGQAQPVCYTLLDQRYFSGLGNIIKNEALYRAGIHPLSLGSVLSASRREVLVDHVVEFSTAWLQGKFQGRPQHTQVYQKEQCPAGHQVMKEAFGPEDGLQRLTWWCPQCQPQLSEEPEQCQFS
The series is described as follows: EMSA. Particulars: protein: recombinant; tags: C-terminal 6xHis; chain copies: 12; label: 32P end label; natively folded, minor misfolded band. (A gel shift assay detects complexes by their altered migration in electrophoresis.)

In series [2] the target is T1, NEIL2 (rNEIL2). The series is described as follows: EMSA; 1 nM RNA, compact band at 75 nM NEIL2; Kd not measurable (aggregates). Particulars: protein: recombinant; tags: C-terminal 6xHis; chain copies: 12; label: 32P end label; folded; partly aggregates.
Series [3] concerns the target T1, NEIL2 (rNEIL2). The series is described as follows: EMSA; 1 nM RNA, no yeast tRNA; Hill 2.428. Particulars: protein: recombinant; tags: C-terminal 6xHis; label: 32P end label.

B1: CoV-2 5'-UTR RNA (full length, 297 nt) (structured_RNA)
RNA: AUUAAAGGUUUAUACCUUCCCAGGUAACAAACCAACCAACUUUCGAUCUCUUGUAGAUCUGUUCUCUAAACGAACUUUAAAAUCUGUGUGGCUGUCACUCGGCUGCAUGCUUAGUGCACUCACGCAGUAUAAUUAAUAACUAAUUACUGUCGUUGACAGGACACGAGUAACUCGUCUAUCUUCUGCAGGCUGCUUACGGUUUCGUCCGUGUUGCAGCCGAUCAUCAGCACAUCUAGGUUUUGUCCGGGUGUGACCGAAAGGUAAGAUGGAGAGCCUUGUCCCUGGUUUCAACGAGAA
Turning to B1, the dissociation constant (Kd) with NEIL2 (rNEIL2) [1] is 44.2 nM.

B2: CoV-2 3'-UTR RNA (full length, 200 nt) (structured_RNA)
RNA: CAAUCUUUAAUCAGUGUGUAACAUUAGGGAGGACUUGAAAGAGCCACCACAUUUUCACCGAGGCCACGCGGAGUACGAUCGAGUGUACAGUGAACAAUGCUAGGGAGAGCUGCCUAUAUGGAAGAGCCCUAAUGUGUAAAAUUAAUUUUAGUAGUGCUAUCCCCAUGUGAUUUUAAUAGCUUCUUAGGAGAAUGACAAAA
For the molecule B2, the binding result with NEIL2 (rNEIL2) [2] is reported as “binds”.

B3: CoV-2 3'-UTR ZnF-site (38-mer) (mixed)
RNA: UCCCCAUGUGAUUUUAAUAGCUUCUUAGGAGAAUGACA
modifications: DNA bases may be present
With B3, the equilibrium dissociation constant (Kd) with NEIL2 (rNEIL2) [3] came out at 77.2 nM.

(Values after PMC10710473, “The DNA glycosylase NEIL2 is protective during SARS-CoV-2 infection”.)
